From patent US20240269676A1

What was measured:
[1] = target: gp100 antigen presented on the surface of B16F10 (gp100+) mouse melanoma cells treated with 1 µM hgp100 peptide (human) (UniProt P40967); assay: microfluidic shear detachment of primary mouse T cells from hgp100-pulsed B16F10 monolayer
[2] = target: gp100 antigen presented on the surface of B16F10 (gp100+) mouse melanoma cells treated with 1 µM hgp100 peptide (human) (UniProt P40967); assay: cell-based or functional assay

- percent of T cells remaining bound at 1.9 Pa [1]: 19.4%
- IFN-γ secretion (ELISA of overnight T cell-B16F10 co-culture media) [2]: 2120 pg/mL
Sequence: T cell receptor of TCR-transgenic Thy1.1+ pmel-1 (Pmel) mouse T cells
